We go through five molecules from patent publication US5849535A (Genentech, Inc., priority 1996, dated 1998).

One series relates to IGF-I levels. Description: Single-dose pharmacodynamics, IGF-I levels in Rhesus monkeys. The format is in vivo. To be noted: single dose 1 mg/kg intravenously or subcutaneously; seven-day study. On the procedure:
The placebo was 0.5 ml formulation buffer administered subcutaneously. IGF-1 levels were determined as in Example XIII.

The nature of series [1]: In vivo half-life of pegylated wild-type hGH in rats.
For another series, the target named is T1, hGHbp (Homo sapiens, UniProt P10912).
T1 construct: the extracellular domain of its receptor (hGHbp)
T1 sequence (P10912 19-256 limits assumed): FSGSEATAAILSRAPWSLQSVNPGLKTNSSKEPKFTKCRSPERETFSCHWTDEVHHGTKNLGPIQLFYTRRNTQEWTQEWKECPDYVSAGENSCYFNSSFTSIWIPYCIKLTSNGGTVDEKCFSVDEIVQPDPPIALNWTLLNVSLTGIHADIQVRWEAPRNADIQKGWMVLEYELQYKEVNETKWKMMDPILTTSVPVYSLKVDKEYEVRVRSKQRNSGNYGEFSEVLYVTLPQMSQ
To be noted: Lowman et al., J. Biol. Chem.; cited from earlier work.

Regarding “PEG-4/5-B2036: B2036 preparation containing primarily conjugates with four and five PEG(5000) groups”, the “IGF-I levels after single injection” value in the series with IGF-I levels was “reduced at one day after administration, continued to decrease until four days after administration, and remained low throughout the seven-day study”.

Regarding “conjugate containing five PEG(5000) groups: pegylated wild-type hGH, approximately 48 kD”, the “longer half-life than the non-pegylated protein” value in series [1] was around 11 fold. Still for that read-out and setting: with “conjugate containing seven PEG groups: pegylated wild-type hGH, approximately 57 kD” the figure was around 18 fold. In the case of “wild-type hGH conjugate containing two PEG(5000) groups: pegylated wild-type hGH, approximately 33 kD”, the “longer half-life than the non-pegylated protein” value in series [1] is reported as around 4 fold.

B1: human placental lactogen (protein, UniProt P0DML2 27-217, looked up)
Chorionic somatomammotropin …: VQTVPLSRLFDHAMLQAHRAHQLAIDTYQEFEETYIPKDQKYSFLHDSQTSFCFSDSIPTPSNMEETQQKSNLELLRISLLLIESWLEPVRFLRSMFANNLVYDTSDSDDYHLLKDLEEGIQTLMGRLEDGSRRTGQILKQTYSKFDTNSHNHDALLKNYGLLYCFRKDMDKVETFLRMVQCRSVEGSCGF
For the molecule B1, the “binds weaker than hGH” value in the series with hGHbp is reported as ~ 2000 fold.
